Data on one molecule can be found in patent publication US20240076396A1 (Regeneron, published 2024).

Assay [1] concerns the target T1, cynomolgus monkey GITR expressed on the cell surface (Macaca fascicularis (cynomolgus monkey)). Put plainly: cell-based or functional assay.
The target in assay [2] is T2, human GITR expressed on the cell surface (human, UniProt Q9Y5U5 26-241).
T2 sequence: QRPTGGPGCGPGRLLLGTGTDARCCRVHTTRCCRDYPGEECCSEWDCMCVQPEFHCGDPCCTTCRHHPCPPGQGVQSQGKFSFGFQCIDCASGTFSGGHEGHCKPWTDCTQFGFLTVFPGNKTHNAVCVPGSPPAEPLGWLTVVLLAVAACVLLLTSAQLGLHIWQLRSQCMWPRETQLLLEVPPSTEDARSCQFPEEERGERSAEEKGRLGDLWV
Put plainly: cell-based or functional assay.

The target of assay [3] is T1, cynomolgus monkey GITR expressed on the …. Description: flow cytometry on Jurkat/hCD20/MfGITR cells. The protocol:
FIG. 5A, FIG. 5B, and FIG. 5C depict cell-surface binding of mAb1 and IgG1 isotype control at a range of concentrations (18 pM to 300 nM) on Jurkat/hCD20 (FIG. 5A), Jurkat/hCD20/hGITR (FIG. 5B), and Jurkat/hCD20/MfGITR (FIG. 5C) cells. Binding was detected using an Alexa647-labeled anti-human IgG by flow cytometry. Fluorescence intensity was plotted as geometric MFI. h, Human; Mf, Macaca fascicularis (cynomolgus monkey).
Flow cytometry was used to evaluate mAb1 binding to Jurkat/hCD20/hGITR cells and Jurkat/hCD20/MfGITR cells. Jurkat/hCD20 cells were used as a negative control cell line for GITR binding. Cells were added to a 96-well V-bottom plate (2×10⁵ to 4×10⁵ cells/well) and incubated in Fc block solution, followed by successive incubation on ice with primary antibody (mAb1 or IgG1 isotype control) at final concentrations ranging from 18 pM to 300 nM and a secondary antibody (AF647-conjugated anti-human IgG) at 5 μg/mL. […] Data were analyzed with Flow.lo software. For EC₅₀ (effective concentration at 50% activity) determinations, measured geometric MFI values were analyzed using a 4-parameter logistic equation over a 9-point response curve with GraphPad Prism. The fold binding was determined by taking the ratio of the highest MFI on the curve to the MFI of the wells containing secondary antibody only.
On the technique in general: A flow cytometer gives signals particle by particle.

Assay [4] deals with T3, hGITR.mmH (soluble monomeric recombinant human GITR ectodomain protein) (human).
T3 construct: also called monomeric human GITR
T3 chain: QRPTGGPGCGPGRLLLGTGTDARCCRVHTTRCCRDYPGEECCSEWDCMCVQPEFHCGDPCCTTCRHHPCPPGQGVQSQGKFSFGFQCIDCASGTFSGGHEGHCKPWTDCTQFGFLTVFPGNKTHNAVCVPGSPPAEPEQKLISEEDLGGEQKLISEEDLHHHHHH
Description: SPR Biacore 2000 25C; CHOt supernatant antibody captured on anti-human Fc; 100 nM hGITR.mmH. The protocol:
Biacore experiments for antibodies secreted in conditioned culture medium were performed as follows. Using a Biacore 2000 instrument at 25° C., antibodies were captured for 80 seconds at a flow rate of 8 uL/min on a CM5 anti-humanFc-coupled surface. Approximately 1000-2000 RU of each antibody were captured. 100 nM hGITR.mmH (soluble monomeric hGITR, SEQ ID NO: 45) or 50 nM hGITR.mFc (dimeric Macaca fasicularis GITR, SEQ ID NO: 46) were injected over this surface for 2 minutes at a flow rate of 50 uL/min. Dissociation was measured for 2 minutes. The KD and t_{1/2} were calculated by fitting the double-referenced sensorgrams to a 1:1 binding model.
(In general: In SPR one partner is held on a chip, and binding of the other changes the refractive index at the surface.)

The target of assay [5] is T1, cynomolgus monkey GITR expressed on the …. Put plainly: flow cytometry, AF647-conjugated antibody on CD4+ CD69+ cynomolgus monkey primary T cells, donor 58945. The method, then:
FIG. 7 depicts antibody binding to CD69+ cynomolgus monkey primary T-cells. Primary cynomolgus monkey T-cells from 4 separate donors were stimulated in vitro with anti-CD2/anti-CD3/anti-CD28-coated beads. Cell-surface binding of AF647-conjugated mAb1 and AF647-conjugated IgG1 isotype control at a range of concentrations (8 pM to 200 nM) on CD69⁺ and CD69⁻ cynomolgus monkey primary CD4⁺ and CD8⁺ T-cells was detected using flow cytometry. Fluorescence intensity was plotted as geometric MFI. Mf, Macaca fascicularis (cynomolgus monkey)
Peripheral blood mononuclear cells (PBMC) were isolated from human or cynomolgus monkey whole blood (4 donors each) using density centrifugation through Ficoll-Paque PLUS in SepMate tubes (for human PBMC) or 50 mL conical tubes (for cynomolgus monkey PBMC) and transferred to a fresh conical tube for incubation in Red Blood Cell (RBC) Lysis Buffer. […] After 4 days, activation beads were removed from the culture using a MACSiMAG Separator, and cells were collected and counted.
Flow cytometry was used to evaluate mAb1 binding to human or cynomolgus monkey T-cells in activated PBMC. […] Data were analyzed with Flowio software. For EC₅₀ determinations, measured geometric MFI values were analyzed using a 4-parameter logistic equation over a 12-point response curve with GraphPad Prism.

B1: mAb1 (antibody, human IgG1, kappa, V domains shown)
VH: QVQLQESGPGLVKPSETLSLTCIVSGGSISGYFWNWIRQPPGKGLEWIGYIYYSGTTIYNPSLKSRFTISLDTSKNQFSLKLTSVTAADTAVYYCARESYDPSPRYFDHWGQGTLVTVSS
VL: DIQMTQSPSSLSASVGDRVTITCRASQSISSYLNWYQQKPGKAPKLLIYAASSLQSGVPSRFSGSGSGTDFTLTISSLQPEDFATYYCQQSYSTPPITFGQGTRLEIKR
notes: Human IgG1; N101D variant of CompAb1; also called N101D Variant; N101D
As to B1, in assay [1], the “EC50, ADCP of Jurkat/hCD20/MfGITR” value came to 0.51 nM and the “Fold Change in Activity, ADCP of Jurkat/hCD20/MfGITR” value was found to be 6.98 fold. Also, in assay [2], the “Fold Change in Activity, ADCP of Jurkat/hCD20/hGITR” value came out at 5.92 fold. Further, the 50% effective concentration (EC50) (commonly the concentration giving half of the maximal effect) in assay [3] worked out at 3.52 nM. In assay [4], the Kd (in general, the free concentration of one partner at which half of the binding sites on the other are occupied at equilibrium, for simple one-to-one binding) was found to be 14.8 nM and the t1/2 amounted to 7.52 min. For the same molecule, the EC50 (read off the curve) (commonly the concentration giving half of the maximal effect) in assay [5] is approximately 4 nM.
